Reference: US20060251661A1

Target: OVA peptide 257-264 (SIINFEKL) presented on MHC class I molecule K^b of antigen presenting cells (mouse; chicken)
Experiment: cell-based or functional assay

Q: For “α-β T cell receptor (TCR) of B3Z CD8+ T hybridoma cells, specific for OVA257-264 presented on K^b”, which % of B3Z cells activated (lacZ reporter, flow cytometry); lymph node cells of mice with B16/OVA tumors injected with α-gal glycolipids is on record?
A: 1.07 to 3.66%

Q: And the % of B3Z cells activated (lacZ reporter, flow cytometry); lymph node cells of mice with PBS treated B16/OVA tumors?
A: 0 to 0.14%
